Experimental data published in patent US20240400614A1, “CLEAVABLE PEPTIDES AND METHODS OF USE THEREOF” (Bright Peak Therapeutics AG, priority 2023, published 2024).
Square brackets hold non-standard residues; d marks the D form. Ends that are not written are not given here. Tyr(3-NO2) = N[C@@H](Cc1ccc(O)c([N+](=O)[O-])c1)C(=O)O; 2Abz = Nc1ccccc1C(=O)O

Experiments:
Assay type in all cases: biochemical
uPA = uPA (Homo sapiens, UniProt P00749); test: FRET peptide cleavage efficiency with uPA; conditions: standard conditions (Table 8)
matriptase = target: T1, matriptase (Homo sapiens, UniProt Q9Y5Y6); test: FRET peptide cleavage efficiency with matriptase; conditions: standard conditions (Table 8)
T1 construct: purchased R&D Systems 3946-SEB
T1 sequence (Q9Y5Y6 615-855 limits assumed): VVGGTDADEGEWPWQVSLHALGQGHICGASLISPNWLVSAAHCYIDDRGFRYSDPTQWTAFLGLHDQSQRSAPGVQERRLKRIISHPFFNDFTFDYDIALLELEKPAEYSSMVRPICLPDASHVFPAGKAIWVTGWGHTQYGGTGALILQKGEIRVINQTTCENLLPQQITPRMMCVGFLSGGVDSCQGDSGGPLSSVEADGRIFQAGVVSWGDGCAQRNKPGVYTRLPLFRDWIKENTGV

MMP-9 = target: T2, MMP-9 (Homo sapiens, UniProt P14780); test: FRET peptide cleavage efficiency with MMP-9 (standard pH 7.5; also pH 6.5)
T2 construct: purchased SIGMA PF024
T2 sequence (P14780 94-707): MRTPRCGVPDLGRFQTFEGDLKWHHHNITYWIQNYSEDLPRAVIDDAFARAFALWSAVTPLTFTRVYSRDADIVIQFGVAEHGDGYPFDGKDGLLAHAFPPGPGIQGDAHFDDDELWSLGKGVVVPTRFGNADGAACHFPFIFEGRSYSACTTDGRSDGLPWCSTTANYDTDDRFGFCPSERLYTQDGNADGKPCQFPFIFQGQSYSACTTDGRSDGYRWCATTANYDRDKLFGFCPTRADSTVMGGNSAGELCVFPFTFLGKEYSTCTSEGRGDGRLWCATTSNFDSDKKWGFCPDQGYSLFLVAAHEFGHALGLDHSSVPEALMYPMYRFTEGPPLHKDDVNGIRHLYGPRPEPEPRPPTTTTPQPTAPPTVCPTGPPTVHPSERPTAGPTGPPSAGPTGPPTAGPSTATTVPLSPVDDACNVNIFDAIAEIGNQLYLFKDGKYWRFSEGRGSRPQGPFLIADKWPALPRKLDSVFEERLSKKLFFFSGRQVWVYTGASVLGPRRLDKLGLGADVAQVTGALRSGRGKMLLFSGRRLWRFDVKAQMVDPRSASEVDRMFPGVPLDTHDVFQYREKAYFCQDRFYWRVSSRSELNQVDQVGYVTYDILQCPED

MMP-7 = target: T3, MMP-7 (Homo sapiens, UniProt P09237); test: FRET peptide cleavage efficiency with MMP-7 (standard pH 7.5; also pH 6.5)
T3 construct: purchased SIGMA CC1059
T3 sequence (P09237 95-267): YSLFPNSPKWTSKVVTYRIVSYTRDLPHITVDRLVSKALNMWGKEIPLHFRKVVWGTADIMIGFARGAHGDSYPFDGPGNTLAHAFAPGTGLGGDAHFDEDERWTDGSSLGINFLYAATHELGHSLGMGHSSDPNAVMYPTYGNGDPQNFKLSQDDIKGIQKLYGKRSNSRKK

MMP-2 = target: T4, MMP-2 (Homo sapiens, UniProt P08253); test: FRET peptide cleavage efficiency with MMP-2; conditions: for % cleavage MMP-2 t = 15 min: t = 15 min (Table 9)
T4 construct: purchased SIGMA PF023
T4 sequence (P08253 110-660): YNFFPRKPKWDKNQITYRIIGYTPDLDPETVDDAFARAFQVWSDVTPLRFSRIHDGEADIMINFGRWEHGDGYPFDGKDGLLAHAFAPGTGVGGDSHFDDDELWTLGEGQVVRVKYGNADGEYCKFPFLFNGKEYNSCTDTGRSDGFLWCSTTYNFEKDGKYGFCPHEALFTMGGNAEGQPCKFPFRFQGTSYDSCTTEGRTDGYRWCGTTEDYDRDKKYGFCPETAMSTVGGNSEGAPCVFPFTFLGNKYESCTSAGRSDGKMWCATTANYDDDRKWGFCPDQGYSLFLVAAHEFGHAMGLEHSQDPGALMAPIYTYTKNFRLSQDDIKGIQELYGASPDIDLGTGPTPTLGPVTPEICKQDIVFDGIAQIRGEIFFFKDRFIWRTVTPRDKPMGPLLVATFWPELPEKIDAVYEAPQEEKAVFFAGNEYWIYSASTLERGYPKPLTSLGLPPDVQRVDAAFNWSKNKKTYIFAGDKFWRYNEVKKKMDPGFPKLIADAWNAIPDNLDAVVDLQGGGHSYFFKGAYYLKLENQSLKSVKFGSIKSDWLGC

[1] = t = 15 min, standard conditions (Table 8)
[2] = t = 60 min, standard conditions (Table 8)
[3] = t = 120 min, standard conditions (Table 8)

Row | Sequence | % vcleavage uPA t = 15 min (uPA) [%] | % cleavage uPA t = 60 min (uPA) [%] | % cleavage uPA t = 120 min (uPA) [%] | % cleavage Matriptase t = 15 min (matriptase) [%] | % cleavage Matriptase t = 60 min (matriptase) [%] | % cleavage Matriptase t = 120 min (matriptase) [%] | % cleavage MMP-9 t = 15 min (MMP-9; t = 15 min (Table 9)) [%] | % cleavage MMP-9 t = 15 min (MMP-9; [1]) [%] | % cleavage MMP-9 t = 60 min (MMP-9; t = 60 min (Table 9)) [%] | % cleavage MMP-9 t = 60 min (MMP-9; [2]) [%] | % cleavage MMP-9 t = 120 min (MMP-9; t = 120 min (Table 9)) [%] | % cleavage MMP-9 t = 120 min (MMP-9; [3]) [%] | % cleavage MMP-7 t = 15 min (MMP-7; t = 15 min (Table 9)) [%] | % cleavage MMP-7 t = 15 min (MMP-7; [1]) [%] | % cleavage MMP-7 t = 60 min (MMP-7; t = 60 min (Table 9)) [%] | % cleavage MMP-7 t = 60 min (MMP-7; [2]) [%] | % cleavage MMP-7 t = 120 min (MMP-7; t = 120 min (Table 9)) [%] | % cleavage MMP-7 t = 120 min (MMP-7; [3]) [%] | % cleavage MMP-2 t = 15 min (MMP-2) [%] | % cleavage MMP-2 t = 60 min (MMP-2; t = 60 min (Table 9)) [%] | further results
1 | RGRKPYMLQG ([2Abz]RGRKPYMLQG[Tyr(3-NO2)]-NH2) [LNK035] | 0 | 0 | 0 | 67 | 100 | 100 | 42 | 42 | 100 | 100 | 100 | 100 | 28 | 28 | 80 | 80 | 95 | 95 | 33 | 77 | % cleavage MMP-2 t = 60 min (MMP-2; [2]): 77%; % cleavage MMP-2 t = 120 min (MMP-2; t = 120 min (Table 9)): 91%; % cleavage MMP-2 t = 120 min (MMP-2; [3]): 91%
2 | RGRKSPANLVG ([2Abz]RGRKSPANLVG[Tyr(3-NO2)]-NH2) [LNK034] | 0 | 0 | 0 | 100 | 100 | 100 | 100 | 100 | 100 | 100 | 100 | 100 | 32 | 32 | 89 | 89 | 100 | 100 | 92 | 100 | % cleavage MMP-2 t = 60 min (MMP-2; [2]): 100%; % cleavage MMP-2 t = 120 min (MMP-2; t = 120 min (Table 9)): 100%; % cleavage MMP-2 t = 120 min (MMP-2; [3]): 100%
3 | RGRKSPQPLVD ([2Abz]RGRKSPQPLVD[Tyr(3-NO2)]-NH2) [LNK040] | 0 | 0 | 0 | 100 | 100 | 100 | 25 | 25 | 69 | 69 | 89 | 89 | 29 | 29 | 74 | 74 | 93 | 93 | 8 | 28 | % cleavage MMP-2 t = 60 min (MMP-2; [2]): 28%; % cleavage MMP-2 t = 120 min (MMP-2; t = 120 min (Table 9)): 47%; % cleavage MMP-2 t = 120 min (MMP-2; [3]): 47%
